According to patent US8003609B2, “Method for ameliorating pain by modification of NMDA receptors through inhibition of Src” (The Hospital for Sick Children, priority 2004, dated 2011):

Legend:
[1] = molecular target: T1, interaction between Src and ND2 (Rattus norvegicus, UniProt P11662); experiment: co-immunoprecipitation of ND2 by anti-Src from PSD proteins; type: binding; details: PSD proteins incubated with peptide
T1 construct: from tissue; host or cells: rat brain post-synaptic density fraction
T1 sequence (P11662 1-346): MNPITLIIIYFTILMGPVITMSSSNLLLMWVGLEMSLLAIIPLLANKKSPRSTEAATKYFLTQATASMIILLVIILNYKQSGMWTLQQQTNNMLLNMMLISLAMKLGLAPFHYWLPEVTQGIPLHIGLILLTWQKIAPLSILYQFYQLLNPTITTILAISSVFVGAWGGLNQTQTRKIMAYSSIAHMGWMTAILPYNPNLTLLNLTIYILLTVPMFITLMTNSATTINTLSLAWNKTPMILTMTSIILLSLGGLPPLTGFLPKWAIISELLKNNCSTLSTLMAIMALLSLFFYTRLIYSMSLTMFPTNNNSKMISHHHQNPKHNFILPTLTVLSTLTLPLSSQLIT
Experimental: Detailed protocols for in vitro binding assays, pull down assays, immunoblotting, and co-immunoprecipitation techniques can be found in Pelkey et al. (Neuron 34:127-138 2002).
Post-synaptic density proteins (Kennedy et al. Proceedings of the National Academy of Science USA 80:7357-7361 1983) were prepared from rat brain as described in detail (Pelkey et al. Neuron 34:127-138 2002). Cellular fractionation of rat brain tissue into nuclear, heavy mitochondrial, light mitochondrial, microsomal, and cytosolic fractions was performed by differential centrifugation of tissue homogenate in 0.25 M sucrose/10 mM HEPES-NaOH, 1 mM EDTA, pH 7.4 with 2 μg each of aprotinin, pepstatin A, and leupeptin (Sigma, St. Louis, Mo.) at 4° C. Nuclei were pelleted by centrifugation at 1 000 g for 10 minutes, the supernatant was removed and spun at 3 000 g for 10 minutes to obtain a heavy mitochondrial pellet. The supernatant was removed and spun at 16 000 g for 15 minutes to obtain a light mitochondrial pellet. The supernatant was removed and spun at 100 000 g for 1 hour to obtain a microsomal pellet and the cytosolic fraction. All pellets were then resuspended in RIPA buffer (50 mM Tris pH 7.6, 150 mM NaCl, 1 mM EDTA, 1% NP-40, 2.5 mg/ml NaDOC, 1 mM Na3VO4 1 mM PMSF, and 2 μg/ml each of protease inhibitors). The light mitochondrial fraction was used in subsequent experiments. […]

ND2.3-GST = molecular target: T2, ND2.3-GST (Homo sapiens, UniProt P03891); experiment: dot blot of biotinylated Src peptides on ND2.3-GST; type: binding; details: biotinylated peptide
T2 construct: amino acids 1-188 (ND2.3-GST); made in house; host or cells: bacteria
Experimental: Src, Fyn, and ND2 recombinant proteins were prepared. The cDNAs encoding the SH3 and SH2 domains of mouse n-Src and Fyn were PCR subcloned, ligated in frame into pGEX4T-1 (Amersham Pharmacia Biotech, Baie d'Urfé, Québec), and sequenced. These plasmids, as well as plasmids encoding the unique domains of Src and Fyn in pGEX2T'6, were transformed into BL21 bacteria, and GST fusion proteins were purified by glutathione affinity chromatography. To create the ND2.1, ND2.2, and ND2.3 GST fusion proteins, cDNAs encoding amino acids 239-321 (ND2.1-GST; SEQ ID NO:7), amino acids 189-238 (ND2.2-GST; SEQ ID NO:11), and amino acids 1-188 (ND2.3-GST; SEQ ID NO:13) of human ND2 were PCR subcloned and ligated into pGEX4T-1 (the nucleotide sequence encoding ND2 is SEQ ID NO:8 and the amino acid sequence is SEQ ID NO:9; the nucleotide sequences encoding ND2.1; ND2.2 and ND2.3 are SEQ ID NOS:6, 10 and 12, respectively). Using PCR-based single nucleotide mutagenesis, all cDNAs encoding ND2 fusion proteins were corrected for differences between mitochondrial and nuclear codons to prevent premature translation termination and protein truncation. […]
Src40-58 and scrambled Src peptides were biotinylated by incubating with Sulfo-NHS-Biotin (Pierce Chemical Co., Rockford, Ill.) for 30 minutes at room temperature (SEQ ID NO:4, Src protein). […] Bound probe was then detected on film using an ECL kit.

T2 sequence (P03891 1-188): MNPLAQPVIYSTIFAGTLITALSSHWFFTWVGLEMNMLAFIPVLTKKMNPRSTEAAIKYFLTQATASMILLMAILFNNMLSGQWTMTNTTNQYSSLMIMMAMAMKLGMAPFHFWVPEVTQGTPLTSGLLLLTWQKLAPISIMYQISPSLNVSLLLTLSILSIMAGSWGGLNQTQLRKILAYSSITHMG

Substance: Src40-58: peptide comprising amino acid residues 40-58 of SEQ ID NO:4 (Src) (PASADGHRGPSAAFAPAAA; listed as Homo sapiens)
- co-immunoprecipitation of ND2 by anti-Src [1]: prevented
- immunoprecipitation of Src from PSDs [1]: did not affect
- binding to ND2.3-GST (ND2.3-GST): Neither Src40-58 nor scrambled Src40-58 bound
